Data as given in article PMC2894052.

Target: recombinant Dnmt1 protein (Dnmt1^R), not treated with a kinase (human) (UniProt P26358)
UniProt P26358, sequence (P26358 whole entry): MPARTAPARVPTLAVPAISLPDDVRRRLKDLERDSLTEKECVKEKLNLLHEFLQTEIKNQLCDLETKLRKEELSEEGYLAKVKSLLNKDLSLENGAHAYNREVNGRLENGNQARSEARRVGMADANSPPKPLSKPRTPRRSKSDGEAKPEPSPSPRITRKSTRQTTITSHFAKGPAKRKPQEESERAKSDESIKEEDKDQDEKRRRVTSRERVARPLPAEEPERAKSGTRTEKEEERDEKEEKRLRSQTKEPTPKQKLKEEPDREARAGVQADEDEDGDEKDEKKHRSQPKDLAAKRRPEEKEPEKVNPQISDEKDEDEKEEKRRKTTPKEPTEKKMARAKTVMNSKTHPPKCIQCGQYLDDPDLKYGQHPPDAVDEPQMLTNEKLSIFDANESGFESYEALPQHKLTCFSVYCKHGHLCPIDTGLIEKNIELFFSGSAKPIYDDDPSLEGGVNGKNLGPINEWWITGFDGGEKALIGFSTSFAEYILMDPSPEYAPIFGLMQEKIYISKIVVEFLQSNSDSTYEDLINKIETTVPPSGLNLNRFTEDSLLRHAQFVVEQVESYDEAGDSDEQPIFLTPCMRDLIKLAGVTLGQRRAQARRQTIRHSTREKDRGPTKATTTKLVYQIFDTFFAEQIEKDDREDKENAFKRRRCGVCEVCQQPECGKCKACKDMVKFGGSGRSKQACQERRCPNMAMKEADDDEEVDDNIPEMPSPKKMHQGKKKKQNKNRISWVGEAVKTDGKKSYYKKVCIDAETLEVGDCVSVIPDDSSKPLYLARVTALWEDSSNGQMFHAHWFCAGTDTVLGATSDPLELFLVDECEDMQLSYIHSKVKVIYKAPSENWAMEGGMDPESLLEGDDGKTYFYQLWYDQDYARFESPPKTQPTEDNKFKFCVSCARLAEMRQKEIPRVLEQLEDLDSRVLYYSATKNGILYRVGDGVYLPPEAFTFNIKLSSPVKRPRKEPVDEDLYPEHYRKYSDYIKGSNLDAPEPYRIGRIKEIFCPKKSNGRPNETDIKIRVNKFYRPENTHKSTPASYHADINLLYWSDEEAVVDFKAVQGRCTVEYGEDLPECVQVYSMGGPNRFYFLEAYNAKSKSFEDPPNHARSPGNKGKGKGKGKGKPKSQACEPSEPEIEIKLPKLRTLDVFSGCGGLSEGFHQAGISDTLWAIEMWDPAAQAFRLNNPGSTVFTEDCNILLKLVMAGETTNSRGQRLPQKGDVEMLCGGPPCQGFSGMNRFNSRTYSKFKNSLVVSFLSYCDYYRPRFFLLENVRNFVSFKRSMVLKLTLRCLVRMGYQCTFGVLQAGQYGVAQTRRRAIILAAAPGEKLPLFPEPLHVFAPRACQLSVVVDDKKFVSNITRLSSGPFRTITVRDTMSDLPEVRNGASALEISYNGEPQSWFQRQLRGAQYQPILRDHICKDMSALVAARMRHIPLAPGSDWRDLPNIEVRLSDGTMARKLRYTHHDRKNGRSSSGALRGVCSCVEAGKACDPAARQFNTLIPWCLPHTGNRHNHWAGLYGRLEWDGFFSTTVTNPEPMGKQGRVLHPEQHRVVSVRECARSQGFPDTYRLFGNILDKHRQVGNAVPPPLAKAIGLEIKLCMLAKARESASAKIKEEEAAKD

mMTase activity (DMB assay, incorporation of 3H-radiolabelled methyl groups) of Dnmt1 with an equimolar quantity of UHRF1, against that of pDnmt1^S127/S143 and pDnmt1^S127 [fold]	mMTase activity (DMB assay, incorporation of 3H-radiolabelled methyl groups) of Dnmt1 with an equimolar quantity of PCNA, against that of pDnmt1^S127/S143 and pDnmt1^S127 [fold]	Substance
4		GST-UHRF1 (from UniProt Q96T88 1-793) (natural protein)
	5	GST-PCNA (from UniProt P12004 1-261) (natural protein)
